Article PMC12350170 (2025)

Columns and labels:
[1] = target: T1, MBP-PHAX103–196 (wild type) (human, UniProt Q9H814 103-196); experiment: ITC
T1 chain: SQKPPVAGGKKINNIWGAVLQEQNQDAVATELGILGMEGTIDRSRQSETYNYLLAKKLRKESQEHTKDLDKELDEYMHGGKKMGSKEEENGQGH

[2] = target: MBP-PHAX103–196 R147E, Y152E, Y154E (human, UniProt Q9H814 103-196, R147E | Y152E | Y154E); experiment: ITC; CBC bound to m7GpppG
[3] = target: T1, MBP-PHAX103–196 (wild type); experiment: ITC; CBC bound to m7GpppG

Kd [1]: 1.86 µM
Kd [2]: 1.97 µM
Kd [3]: 1.45 µM
B1: Human nuclear cap-binding complex (CBC): CBP80ΔNLS with CBP20 (complex)
chain 1: KTSDANETEDHLESLICKVGEKSACSLESNLEGLAGVLEADLPNYKSKILRLLCTVARLLPEKLTIYTTLVGLLNARNYNFGGEFVEAMIRQLKESLKANNYNEAVYLVRFLSDLVNCHVIAAPSMVAMFENFVSVTQEEDVPQVRRDWYVYAFLSSLPWVGKELYEKKDAEMDRIFANTESYLKRRQKTHVPMLQVWTADKPHPQEEYLDCLWAQIQKLKKDRWQERHILRPYLAFDSILCEALQHNLPPFTPPPHTEDSVYPMPRVIFRMFDYTDDPEGPVMPGSHSVERFVIEENLHCIIKSHWKERKTCAAQLVSYPGKNKIPLNYHIVEVIFAELFQLPAPPHIDVMYTTLLIELCKLQPGSLPQVLAQATEMLYMRLDTMNTTCVDRFINWFSHHLSNFQFRWSWEDWSDCLSQDPESPKPKFVREVLEKCMRLSYHQRILDIVPPTFSALCPANPTCIYKYGDESSNSLPGHSVALCLAVAFKSKATNDEIFSILKDVPNPNQDDDDDEGFSFNPLKIEVFVQTLLHLAAKSFSHSFSALAKFHEVFKTLAESDEGKLHVLRVMFEVWRNHPQMIAVLVDKMIRTQIVDCAAVANWIFSSELSRDFTRLFVWEILHSTIRKMNKHVLKIQKELEEAKEKLARQHKRRSDDDDRSSDRKDGVLEEQIERLQEKVESAQSEQKNLFLVIFQRFIMILTEHLVRCETDGTSVLTPWYKNCIERLQQIFLQHHQIIQQYMVTLENLLFTAELDPHILAVFQQFCALQA
chain 2: MSGGLLKALRSDSYVELSQYRDQHFRGDNEEQEKLLKKSCTLYVGNLSFYTTEEQIYELFSKSGDIKKIIMGLDKMKKTACGFCFVEYYSRADAENAMRYINGTRLDDRIIRTDWDAGFKEGRQYGRGRSGGQVRDEYRQDYDAGRGGYGKLAQNQ
